Measurements published in US20240254223A1 (NOVIMMUNE, published 2024).
Blank lines part the entries; values can stand above or below the binder they belong to.

What was measured:
[1] = target: T1, low-moderate affinity dimeric IL-2R (IL-2Rβ and IL-2Rγ) on HEK-Blue CD122/CD132 cells (UniProt P14784 27-551; P31785 23-369, limits assumed); assay: cell-based or functional assay
T1 sequence (looked up) 1: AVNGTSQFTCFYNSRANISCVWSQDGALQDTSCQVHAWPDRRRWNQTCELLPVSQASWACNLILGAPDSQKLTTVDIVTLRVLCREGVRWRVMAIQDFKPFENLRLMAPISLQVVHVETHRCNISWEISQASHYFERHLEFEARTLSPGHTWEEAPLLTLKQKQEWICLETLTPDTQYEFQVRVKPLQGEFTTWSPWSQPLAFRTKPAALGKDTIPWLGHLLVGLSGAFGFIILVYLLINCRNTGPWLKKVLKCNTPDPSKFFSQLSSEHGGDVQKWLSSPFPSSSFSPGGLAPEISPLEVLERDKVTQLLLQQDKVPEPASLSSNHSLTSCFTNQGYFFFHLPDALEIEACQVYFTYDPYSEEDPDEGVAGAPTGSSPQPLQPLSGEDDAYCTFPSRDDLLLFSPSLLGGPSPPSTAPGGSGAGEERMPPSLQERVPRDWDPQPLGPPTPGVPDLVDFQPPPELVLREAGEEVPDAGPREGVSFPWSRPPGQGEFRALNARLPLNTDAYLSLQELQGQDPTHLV
T1 sequence (looked up) 2: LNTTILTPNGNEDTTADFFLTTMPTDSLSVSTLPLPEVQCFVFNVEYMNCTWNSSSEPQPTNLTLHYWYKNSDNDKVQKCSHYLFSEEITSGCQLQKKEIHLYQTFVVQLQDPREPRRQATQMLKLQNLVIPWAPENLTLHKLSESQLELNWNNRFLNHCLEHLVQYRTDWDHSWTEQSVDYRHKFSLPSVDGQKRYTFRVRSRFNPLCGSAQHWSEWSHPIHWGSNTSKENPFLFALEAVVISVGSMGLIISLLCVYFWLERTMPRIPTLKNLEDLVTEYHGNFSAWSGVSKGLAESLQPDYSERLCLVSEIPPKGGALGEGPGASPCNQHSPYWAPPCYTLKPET

[2] = target: T2, His-tagged human CD47 (human, UniProt Q08722 19-139, limits assumed); assay: BLI, His-CD47 on HIS1K sensor, antibody 15 µg/mL
T2 construct: loaded on HIS1K biosensors at 2.5 µg/mL; also called target antigen; not shown: His tag
Description: The capacity of the masking domains to inhibit binding activity of the antibody was evaluated by Bio-Layer Interferometry (BLI). […] Binding experiments were performed to evaluate the masking efficiency and the binding recovery after cleavage of the masking domains. BLI was performed on an Octet RED96 system (Sartorius). His-tagged human CD47 was diluted at 2.5 μg/mL in Kinetic Buffer (KB) (Sartorius) and loaded on HIS1K biosensors (anti-His tag antibody biosensors, Sartorius) for 300 seconds. Loaded biosensors were dipped into antibodies diluted at 15 μg/mL in KB for 300 seconds to monitor association. Then, biosensors were transferred in KB for dissociation for 60 seconds. Binding profiles were then analyzed with ForteBio Data Analysis software.

[3] = target: T3, CD47 at the surface of Peak cells (human, UniProt Q08722 19-323); assay: flow cytometry, Peak cells; EC50 before / EC50 after cleavage
T3 construct: whole, on cells; also called cell surface CD47
Description: (§1) Binding activity of antibody-cytokine/receptor fusions before and after cleavage was also evaluated by flow cytometry. Peak cells derived from HEK 293 which are human cells expressing CD47 were used to evaluate masking efficacy and binding recovery to CD47 by flow cytometry. Peak cells were diluted in cold FACS buffer (PBS, 2% BSA) to 1.2×10⁶ cells/mL. 3×10⁵ cells/well were added in a 96 well V-bottom plate. The plate was then centrifugated for 5 min at 1300 rpm, 4° C. Supernatants were removed and cells were washed twice using FACS buffer. A serial dilution of antibody-cytokine/receptor fusions previously digested with MMP-9 or not digested as described above was prepared in FACS buffer. An irrelevant antibody was included. Then, 150 μL of each diluted antibody were added in corresponding well and incubated for 30 min at 4° C. Cells were washed twice with FACS buffer and 100 μL of a mouse anti human Fc-PE conjugated secondary antibody were added and the plate was incubated for 20 min at 4° C. Cells were then washed twice with FACS buffer. Finally, 150 μL of SYTOX blue dead cell stain (ThermoFisher) diluted to 1/5000 in FACS buffer were added before detection by flow cytometry with Cytoflex (Beckman Coulter). Acquisition was performed with 10000 events for each well. Data were analyzed by FlowJo software.

[4] = target: T4, high affinity trimeric IL-2R (IL-2Rα, IL-2Rβ and IL-2Rγ) on HEK-Blue IL-2 cells (UniProt P01589 22-272; P14784 27-551; P31785 23-369); assay: cell-based or functional assay
T4 sequence (looked up) 1: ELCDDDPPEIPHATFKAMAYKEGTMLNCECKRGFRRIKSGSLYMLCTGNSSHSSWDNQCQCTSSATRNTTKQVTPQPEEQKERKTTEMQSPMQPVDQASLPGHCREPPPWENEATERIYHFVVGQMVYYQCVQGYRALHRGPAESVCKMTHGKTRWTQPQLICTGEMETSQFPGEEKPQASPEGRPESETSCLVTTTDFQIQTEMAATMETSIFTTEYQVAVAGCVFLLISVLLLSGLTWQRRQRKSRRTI
T4 sequence (looked up) 2: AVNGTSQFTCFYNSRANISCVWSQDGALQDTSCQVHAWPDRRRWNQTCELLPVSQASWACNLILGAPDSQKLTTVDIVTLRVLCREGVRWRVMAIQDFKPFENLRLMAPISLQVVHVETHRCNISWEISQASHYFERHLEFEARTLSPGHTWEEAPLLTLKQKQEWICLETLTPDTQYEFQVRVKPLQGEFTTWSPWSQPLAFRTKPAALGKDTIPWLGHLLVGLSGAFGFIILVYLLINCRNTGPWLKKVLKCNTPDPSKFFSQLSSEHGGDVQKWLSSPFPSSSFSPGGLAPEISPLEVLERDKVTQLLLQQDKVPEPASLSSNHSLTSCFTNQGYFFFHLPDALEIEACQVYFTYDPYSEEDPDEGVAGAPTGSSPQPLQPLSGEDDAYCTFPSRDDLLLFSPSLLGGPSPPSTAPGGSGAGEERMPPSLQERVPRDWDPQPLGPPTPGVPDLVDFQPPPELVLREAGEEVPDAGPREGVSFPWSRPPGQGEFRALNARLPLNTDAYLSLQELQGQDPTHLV
T4 sequence (looked up) 3: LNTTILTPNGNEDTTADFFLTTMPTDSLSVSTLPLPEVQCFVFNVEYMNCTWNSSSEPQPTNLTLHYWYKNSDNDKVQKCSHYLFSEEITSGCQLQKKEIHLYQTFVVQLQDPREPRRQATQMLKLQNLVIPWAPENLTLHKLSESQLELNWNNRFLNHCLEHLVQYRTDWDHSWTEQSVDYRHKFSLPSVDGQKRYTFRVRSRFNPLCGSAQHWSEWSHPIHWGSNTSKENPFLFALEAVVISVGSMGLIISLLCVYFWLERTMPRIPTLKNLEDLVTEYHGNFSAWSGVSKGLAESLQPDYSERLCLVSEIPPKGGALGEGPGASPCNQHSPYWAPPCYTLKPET

[5] = target: T3, CD47 at the surface of Peak cells; assay: flow cytometry, Peak cells, before cleavage
Description: as §1

[6] = target: T3, CD47 at the surface of Peak cells; assay: flow cytometry, Peak cells
Description: as §1

- EC50 before cleavage IL-2, HEK Blue IL-2 βγ reporter assay [1]: 0.12 nM
- EC50 ratio (BC/AC), HEK Blue IL-2 βγ reporter assay [1]: 4
- Binding before cleavage (BLI) [2]: 1.2 nm
- Binding recovery (BC/AC) [3]: 20
- EC50 before cleavage IL-2, HEK Blue IL-2 αβγ reporter assay [4]: 0.07 nM
- EC50 ratio (BC/AC), HEK Blue IL-2 αβγ reporter assay [4]: 1
- EC50 [5]: 8.7 nM
B1: pNOVI V2K K91_IL-2Rα CM1_VKCK_IL-2_CM1_VHCH (antibody, human IgG1, kappa)
light: ELCDDDPPEIPHATFKAMAYKEGTMLNCECKRGFRRIKSGSLYMLCTGNSSHSSWDNQCQCTSSATRNTTKQVTPQPEEQKERKTTEMQSPMQPVDQASLPGHCREPPPWENEATERIYHFVVGQMVYYQCVQGYRALHRGPAESVCKMTHGKTRWTQPQLICTGEMETSQFPGEEKPQASPEGRPESETSCLVTTTDFQIQTEMAATMETSIFTTEGGGGSVHMPLGFLGPGGSDIQMTQSPSSLSASVGDRVTITCNVDQVIANWLNWYQQKPGKAPKLLIYAASSLQSGVPSRFSGSGSGTDFTLTISSLQPEDFATYYCQQMHPRAPKQFGQGTKVEIKRTVAAPSVFIFPPSDEQLKSGTASVVCLLNNFYPREAKVQWKVDNALQSGNSQESVTEQDSKDSTYSLSSTLTLSKADYEKHKVYACEVTHQGLSSPVTKSFNRGEC
heavy: not shown
notes: masked K91 fusion, uncleaved; also called n690; construct No 690

- EC50 [6]: 0.062 nM
- Binding before cleavage (BLI) [2]: 1.8 nm
B2: pNOVI V2K K91 (antibody, human IgG1, kappa)
light: DIQMTQSPSSLSASVGDRVTITCNVDQVIANWLNWYQQKPGKAPKLLIYAASSLQSGVPSRFSGSGSGTDFTLTISSLQPEDFATYYCQQMHPRAPKQFGQGTKVEIKRTVAAPSVFIFPPSDEQLKSGTASVVCLLNNFYPREAKVQWKVDNALQSGNSQESVTEQDSKDSTYSLSSTLTLSKADYEKHKVYACEVTHQGLSSPVTKSFNRGEC
heavy: not shown
notes: also called n46; construct No 46

- Binding before cleavage (BLI) [2]: 1.5 nm
B3: pNOVI V2K K91_IL15_CM1_VHCH (antibody)
light: DIQMTQSPSSLSASVGDRVTITCNVDQVIANWLNWYQQKPGKAPKLLIYAASSLQSGVPSRFSGSGSGTDFTLTISSLQPEDFATYYCQQMHPRAPKQFGQGTKVEIKRTVAAPSVFIFPPSDEQLKSGTASVVCLLNNFYPREAKVQWKVDNALQSGNSQESVTEQDSKDSTYSLSSTLTLSKADYEKHKVYACEVTHQGLSSPVTKSFNRGEC
heavy: not shown
notes: masked K91 fusion, uncleaved; 49% aggregates; also called n111; construct No 111

- Binding before cleavage (BLI) [2]: 2.3 nm
B4: pNOVI V2K K91_IL-2 CM1_VHCH (antibody, human IgG1, kappa)
light: DIQMTQSPSSLSASVGDRVTITCNVDQVIANWLNWYQQKPGKAPKLLIYAASSLQSGVPSRFSGSGSGTDFTLTISSLQPEDFATYYCQQMHPRAPKQFGQGTKVEIKRTVAAPSVFIFPPSDEQLKSGTASVVCLLNNFYPREAKVQWKVDNALQSGNSQESVTEQDSKDSTYSLSSTLTLSKADYEKHKVYACEVTHQGLSSPVTKSFNRGEC
heavy: not shown
notes: masked K91 fusion, uncleaved; also called n13; construct No 13
